The values that follow come from patent publication US20040141978A1 (PHARMACIA AND UPJOHN, published 2004).

The target of assay [1] is Angiostatin + Binding Domain (UniProt P00747). The assay can be described thus: cell-based or functional assay.
A further assay deals with p53 + Binding Domain. The assay can be described thus: cell-based or functional assay.
The target of another assay is T1, ABP-1 (human, UniProt Q4VCS5 410-1084).
T1 construct: also called angiostatin receptor
T1 sequence: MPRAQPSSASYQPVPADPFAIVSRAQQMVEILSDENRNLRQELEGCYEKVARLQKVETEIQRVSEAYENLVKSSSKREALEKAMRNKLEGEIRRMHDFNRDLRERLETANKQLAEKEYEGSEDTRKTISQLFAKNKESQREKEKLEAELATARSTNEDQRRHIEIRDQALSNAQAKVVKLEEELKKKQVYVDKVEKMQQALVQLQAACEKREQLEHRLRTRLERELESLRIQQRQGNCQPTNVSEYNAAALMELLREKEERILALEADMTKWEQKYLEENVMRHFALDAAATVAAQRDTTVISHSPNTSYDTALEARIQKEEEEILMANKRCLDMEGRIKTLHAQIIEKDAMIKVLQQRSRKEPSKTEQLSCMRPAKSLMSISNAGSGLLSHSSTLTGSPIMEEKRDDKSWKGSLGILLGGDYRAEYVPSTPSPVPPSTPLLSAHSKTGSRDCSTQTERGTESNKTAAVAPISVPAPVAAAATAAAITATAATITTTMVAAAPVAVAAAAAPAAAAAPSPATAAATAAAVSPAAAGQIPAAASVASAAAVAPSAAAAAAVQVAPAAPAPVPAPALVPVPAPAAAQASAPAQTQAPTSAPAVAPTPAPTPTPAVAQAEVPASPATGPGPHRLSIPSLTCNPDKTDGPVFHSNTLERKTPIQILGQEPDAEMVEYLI
The assay can be described thus: fluorescence microscopy, FITC-labelled angiostatin (10 ug/ml) on live HeLa cells transfected with ABP-1.

Sequence of Angiostatin + Binding Domain (P00747 whole entry, the tested form may be a part): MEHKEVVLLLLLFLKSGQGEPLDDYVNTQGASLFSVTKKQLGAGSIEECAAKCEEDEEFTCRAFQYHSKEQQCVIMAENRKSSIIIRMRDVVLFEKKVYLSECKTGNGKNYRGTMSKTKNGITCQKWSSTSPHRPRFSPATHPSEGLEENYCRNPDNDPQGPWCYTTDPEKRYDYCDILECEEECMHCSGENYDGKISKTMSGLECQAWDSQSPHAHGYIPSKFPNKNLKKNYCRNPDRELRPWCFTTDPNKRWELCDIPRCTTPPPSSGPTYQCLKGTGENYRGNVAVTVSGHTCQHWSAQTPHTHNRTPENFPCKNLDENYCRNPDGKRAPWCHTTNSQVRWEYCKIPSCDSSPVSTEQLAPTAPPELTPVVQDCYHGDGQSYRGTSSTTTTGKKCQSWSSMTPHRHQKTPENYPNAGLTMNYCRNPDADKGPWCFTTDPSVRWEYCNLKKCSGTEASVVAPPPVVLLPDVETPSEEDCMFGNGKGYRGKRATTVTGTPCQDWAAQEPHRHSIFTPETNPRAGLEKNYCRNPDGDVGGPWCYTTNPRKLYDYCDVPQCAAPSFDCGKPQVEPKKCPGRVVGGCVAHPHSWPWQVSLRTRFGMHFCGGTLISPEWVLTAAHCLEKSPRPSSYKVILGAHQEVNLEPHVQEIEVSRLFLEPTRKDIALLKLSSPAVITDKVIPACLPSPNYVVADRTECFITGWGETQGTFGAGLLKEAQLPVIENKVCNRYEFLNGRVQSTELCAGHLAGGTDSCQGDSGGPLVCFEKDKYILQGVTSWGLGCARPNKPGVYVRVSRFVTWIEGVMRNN

On to “Activation Domain alone (from UniProt P04386 768-881)”, for which the β-Gal Activity in assay [1] was less than 0.04 u.
On to “SV40LT - Activation Domain (from UniProt P03070 84-708)”, for which the β-Gal Activity in the assay with p53 + Binding Domain amounted to 90 u.

B1: human angiostatin (kringle domains 1-4 of plasminogen) (ligand, UniProt P00747 99-459, looked up)
chain: YLSECKTGNGKNYRGTMSKTKNGITCQKWSSTSPHRPRFSPATHPSEGLEENYCRNPDNDPQGPWCYTTDPEKRYDYCDILECEEECMHCSGENYDGKISKTMSGLECQAWDSQSPHAHGYIPSKFPNKNLKKNYCRNPDRELRPWCFTTDPNKRWELCDIPRCTTPPPSSGPTYQCLKGTGENYRGNVAVTVSGHTCQHWSAQTPHTHNRTPENFPCKNLDENYCRNPDGKRAPWCHTTNSQVRWEYCKIPSCDSSPVSTEQLAPTAPPELTPVVQDCYHGDGQSYRGTSSTTTTGKKCQSWSSMTPHRHQKTPENYPNAGLTMNYCRNPDADKGPWCFTTDPSVRWEYCNLKKCSGTEA
modifications: FITC-labelled in the cell binding assay of FIG. 9C
notes: domain: kringle domains 1-4; Used unlabelled in the pull-down and kinase assays, FITC-labelled on transfected HeLa cells; also called K1-K4; FITC-labelled angiostatin
For the molecule B1, the binding result with ABP-1 was “binds”.
